For assay [1], the target named is T1, Human latent myostatin (human, UniProt O14793 25-266; O14793 267-375).
T1 construct: also called human myostatin latent form
T1 sequence 1: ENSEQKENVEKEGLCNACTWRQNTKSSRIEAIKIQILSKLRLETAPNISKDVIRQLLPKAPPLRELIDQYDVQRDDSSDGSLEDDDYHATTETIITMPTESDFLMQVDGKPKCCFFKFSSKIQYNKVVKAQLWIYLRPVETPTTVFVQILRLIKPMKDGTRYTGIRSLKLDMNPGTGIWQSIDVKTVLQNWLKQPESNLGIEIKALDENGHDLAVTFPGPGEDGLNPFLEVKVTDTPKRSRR
T1 sequence 2: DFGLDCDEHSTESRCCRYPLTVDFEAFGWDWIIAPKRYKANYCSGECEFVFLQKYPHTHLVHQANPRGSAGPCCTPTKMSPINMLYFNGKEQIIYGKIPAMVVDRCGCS
The assay can be described thus: SPR 37C; KD pH 5.8 / KD pH 7.4. The method, then:
(§1) ProA/G (Pierce) was immobilized onto all flow cells of a CM4 chip using an amine coupling kit (GE Healthcare). All antibodies and analytes were prepared in ACES pH7.4 or pH5.8 buffer containing 20 mM ACES, 150 mM NaCl, 1.2 mM CaCl₂, 0.05% TWEEN®) 20, 0.005% NaN₃. […] Human, cyno, and mouse latent myostatin was injected at 3.125 to 50 nM prepared by two-fold serial dilution, followed by dissociation. The sensor surface was regenerated each cycle with 10 mM Glycine HCl pH1.5. Binding affinity was determined by processing and fitting the data to a 1:1 binding model using BIACORE® T200 Evaluation software, version 2.0 (GE Healthcare).

The target in assay [2] is T2, Cynomolgus monkey latent myostatin (cynomolgus monkey, UniProt Q95J86 25-266; Q95J86 267-375).
T2 construct: Latent form = complex of two propeptides and the mature dimer; also called Cyno latent myostatin
T2 sequence 1: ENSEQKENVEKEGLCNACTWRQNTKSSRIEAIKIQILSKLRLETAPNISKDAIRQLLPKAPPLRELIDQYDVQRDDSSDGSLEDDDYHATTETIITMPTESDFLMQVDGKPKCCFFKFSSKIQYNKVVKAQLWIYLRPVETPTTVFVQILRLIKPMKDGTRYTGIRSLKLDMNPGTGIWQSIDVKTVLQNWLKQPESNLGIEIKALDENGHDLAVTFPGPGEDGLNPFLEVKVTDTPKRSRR
T2 sequence 2: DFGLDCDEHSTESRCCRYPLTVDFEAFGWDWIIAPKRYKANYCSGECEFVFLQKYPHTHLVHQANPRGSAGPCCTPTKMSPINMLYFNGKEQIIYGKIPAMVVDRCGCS
The assay can be described thus: SPR 37C; KD pH 5.8 / KD pH 7.4. The method, then:
as §1

Assay [3] concerns the target T3, Mouse latent myostatin (mouse, UniProt O08689 26-267; O08689 268-376).
T3 construct: Latent form = complex of two propeptides and the mature dimer
T3 sequence 1: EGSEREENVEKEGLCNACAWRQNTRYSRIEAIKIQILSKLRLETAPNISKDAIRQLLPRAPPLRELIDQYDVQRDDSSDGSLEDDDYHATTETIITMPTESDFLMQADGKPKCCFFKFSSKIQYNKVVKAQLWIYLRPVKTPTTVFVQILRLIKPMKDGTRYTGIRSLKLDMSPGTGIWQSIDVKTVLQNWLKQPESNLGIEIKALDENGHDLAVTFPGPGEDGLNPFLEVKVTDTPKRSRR
T3 sequence 2: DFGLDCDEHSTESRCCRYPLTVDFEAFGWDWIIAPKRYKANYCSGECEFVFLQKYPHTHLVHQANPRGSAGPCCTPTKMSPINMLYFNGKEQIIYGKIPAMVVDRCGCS
In words: SPR 37C; KD pH 5.8 / KD pH 7.4. As for the experimental part:
as §1

Assay [4] deals with T1, Human latent myostatin. In words: SPR (BIACORE T200) 37C, pH 5.8, antibody captured by ProA/G. As for the experimental part:
as §1
(In general: Surface plasmon resonance follows binding to a sensor surface in real time, without labels.)

The target in assay [5] is T2, Cynomolgus monkey latent myostatin. Described as above. As for the experimental part:
as §1

The target of assay [6] is T3, Mouse latent myostatin. Described as above. As for the experimental part:
as §1

In assay [7] the target is T1, Human latent myostatin. In words: SPR (BIACORE T200) 37C, pH 7.4, antibody captured by ProA/G. The method, then: as §1
The target in assay [8] is T2, Cynomolgus monkey latent myostatin. The assay is described as above. As for the experimental part: as §1
Assay [9] concerns the target T3, Mouse latent myostatin. The assay is described as above. As for the experimental part: as §1

In general, Kd refers to the concentration at which binding is half-saturated.

B1: MS_M103240H795-SG1/M103202L1045-SK1 (antibody, human IgG1, kappa)
heavy: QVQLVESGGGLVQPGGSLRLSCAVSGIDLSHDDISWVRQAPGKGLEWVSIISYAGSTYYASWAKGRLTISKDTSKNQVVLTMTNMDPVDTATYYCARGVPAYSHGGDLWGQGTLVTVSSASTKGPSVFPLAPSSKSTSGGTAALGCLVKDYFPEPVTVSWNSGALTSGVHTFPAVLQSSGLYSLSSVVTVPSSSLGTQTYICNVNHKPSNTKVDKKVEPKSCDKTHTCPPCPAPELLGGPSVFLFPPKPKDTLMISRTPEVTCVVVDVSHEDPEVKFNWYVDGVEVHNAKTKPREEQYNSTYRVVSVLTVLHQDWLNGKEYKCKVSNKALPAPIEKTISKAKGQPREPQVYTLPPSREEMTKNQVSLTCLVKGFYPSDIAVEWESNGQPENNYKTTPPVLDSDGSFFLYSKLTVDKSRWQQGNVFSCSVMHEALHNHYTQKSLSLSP
light: DIVMTQSPATLSLSPGERATLSCTTSQSVYHENWLSWFQQKPGQPPKLLIYWASTLAYGVPSRFSGSGSGTDFTLTISSLQPEDAATYYCAGGYGGGRYAFGQGTKVEIKRTVAAPSVFIFPPSDEQLKSGTASVVCLLNNFYPREAKVQWKVDNALQSGNSQESVTEQDSKDSTYSLSSTLTLSKADYEKHKVYACEVTHQGLSSPVTKSFNRGEC
notes: also called MS1032LO19-SG1
Regarding B1, the “ratio of KD at pH 5.8/pH 7.4” value with Human latent myostatin [1] was determined as 168; in assay [2], 109; in the assay with Mouse latent myostatin [3], 106. The Kd with Human latent myostatin [4] is 45.8 nM; in assay [5], 35.6 nM; with Mouse latent myostatin [6], 28.7 nM; with Human latent myostatin [7], 0.273 nM; in assay [8], 0.326 nM; in the assay with Mouse latent myostatin [9], 0.271 nM.

B2: MS_M103205H1004-SG1/M103202L889-SK1 (antibody, human IgG1, kappa, V domains shown)
VH: QVTLKESGPVLVKPTETLTLTCTVSGIDLSHDDISWVRQAPGKGLEWVGIISYAGSMYYASWAKGRLTISKDTSKNQVVLTMTNMDPVDTATYYCARGVPAYSHGGDKWGQGTLVTVSS
VL: DIVMTQSPATLSLSPGERATLSCTSSQSVYHANWLSWFQQKPGQPPKLLIYWASTLAYGVPSRFSGSGSGTDFTLTISSLQPEDAATYYCAGGYGGGRYAFGQGTKVEIKR
notes: also called MS1032LO07-SG1
For the molecule B2, the “ratio of KD at pH 5.8/pH 7.4” value in the assay with Human latent myostatin [1] turned out to be 168; in assay [2] it was 102; with Mouse latent myostatin [3] it was 97. The Kd is 46.2 nM with Human latent myostatin [4]; 34.7 nM in assay [5]; 30.8 nM with Mouse latent myostatin [6]; 0.275 nM with Human latent myostatin [7]; 0.339 nM in assay [8]; 0.319 nM with Mouse latent myostatin [9].

B3: MS_M103240H1246-SG1/M103202L1045-SK1 (antibody, human IgG1, kappa, V domains shown)
VH: QVQLVESGGGLVQPGGSLRLSCAVSGIDLSHEDISWVRQAPGKGLEWVSIISYAGSKYYASWAKGRLTISKDTSKNQVVLTMTNMDPVDTATYYCARGVPAYSHGGDLWGQGTLVTVSS
VL: DIVMTQSPATLSLSPGERATLSCTTSQSVYHENWLSWFQQKPGQPPKLLIYWASTLAYGVPSRFSGSGSGTDFTLTISSLQPEDAATYYCAGGYGGGRYAFGQGTKVEIKR
notes: also called MS1032LO25-SG1
For the molecule B3, the “ratio of KD at pH 5.8/pH 7.4” value with Human latent myostatin [1] came out at 92; in assay [2], 41; with Mouse latent myostatin [3], 38. In addition, the Kd with Human latent myostatin [4] is 25.5 nM; in assay [5], 14.1 nM; with Mouse latent myostatin [6], 9.88 nM; with Human latent myostatin [7] it was 0.276 nM; in assay [8], 0.34 nM; with Mouse latent myostatin [9], 0.259 nM.

B4: MS_M103205H1046-SG1/M103202L889-SK1 (antibody, human IgG1, kappa, V domains shown)
VH: QVTLKESGPVLVKPTETLTLTCTVSGIDLSHTDISWVRQAPGKGLEWVGIISYAGKTYYASWAKKRLTISKDTSKNQVVLTMTNMDPVDTATYYCARGVPAYSHGGDLWGQGTLVTVSS
VL: DIVMTQSPATLSLSPGERATLSCTSSQSVYHANWLSWFQQKPGQPPKLLIYWASTLAYGVPSRFSGSGSGTDFTLTISSLQPEDAATYYCAGGYGGGRYAFGQGTKVEIKR
notes: also called MS1032LO10-SG1
With B4, the “ratio of KD at pH 5.8/pH 7.4” value with Human latent myostatin [1] was 125; in assay [2], 38; in the assay with Mouse latent myostatin [3], 35. Moreover, the dissociation constant Kd worked out at 43.8 nM in the assay with Human latent myostatin [4]; 16.1 nM in [5]; 10.9 nM with Mouse latent myostatin [6]; 0.351 nM with Human latent myostatin [7]; 0.419 nM in assay [8]; 0.334 nM in the assay with Mouse latent myostatin [9].

B5: MS_M103205H1047-SG1/M103202L889-SK1 (antibody, human IgG1, kappa, V domains shown)
VH: QVTLKESGPVLVKPTETLTLTCTVSGIDLSHTDISWVRQAPGKGLEWVGIISYAGKKYYASWAKGRLTISKDTSKNQVVLTMTNMDPVDTATYYCARGVPAYSHGGDLWGQGTLVTVSS
VL: DIVMTQSPATLSLSPGERATLSCTSSQSVYHANWLSWFQQKPGQPPKLLIYWASTLAYGVPSRFSGSGSGTDFTLTISSLQPEDAATYYCAGGYGGGRYAFGQGTKVEIKR
notes: also called MS1032LO11-SG1
In the case of B5, the “ratio of KD at pH 5.8/pH 7.4” value with Human latent myostatin [1] worked out at 341; in assay [2] it was 87; with Mouse latent myostatin [3] it was 81. Also, the Kd with Human latent myostatin [4] was found to be 143 nM; in assay [5], 43.5 nM; with Mouse latent myostatin [6], 29.2 nM; with Human latent myostatin [7], 0.419 nM; in [8] it was 0.502 nM; with Mouse latent myostatin [9], 0.362 nM.

B6: MS_M103205H1795-SG1/M103202L1060-SK1 (antibody, human IgG1, kappa, V domains shown)
VH: QVTLKESGPVLVKPTETLTLTCTVSGIDLSHDDISWVRQAPGKGLEWVGIISYAGSTYYASWAKGRLTISKDTSKNQVVLTMTNMDPVDTATYYCARGVPAYSHGGDLWGQGTLVTVSS
VL: DIVMTQSPATLSLSPGERATLSCTSSQSVFHENWLSWFQQKPGQPPKLLIYWASTLAWGVPSRFSGSGSGTDFTLTISSLQPEDAATYYCAGGYGGGRYAFGQGTKVEIKR
notes: also called MS1032LO24-SG1
For the molecule B6, the results for the “ratio of KD at pH 5.8/pH 7.4” value (with Human latent myostatin [1]; in assay [2]; with Mouse latent myostatin [3]) were 9, 5 and 6, respectively. Moreover, the Kd was found to be 1.52 nM in the assay with Human latent myostatin [4]; 0.929 nM in assay [5]; 1.02 nM with Mouse latent myostatin [6]; 0.164 nM with Human latent myostatin [7]; 0.189 nM in assay [8]; 0.176 nM with Mouse latent myostatin [9].

B7: MS_M103245H1233-SG1/M103202L1045-SK1 (antibody, human IgG1, kappa, V domains shown)
VH: QVTLKESGPVLVKPTETLTLTCKVSGIDLSHEDISWVRQAPGKGLEWVSIISYAGSTYYASWAKGRLTISKDTSKNQVVLTMTNMDPVDTATYYCARGVPAYSHGGDLWGQGTLVTVSS
VL: DIVMTQSPATLSLSPGERATLSCTTSQSVYHENWLSWFQQKPGQPPKLLIYWASTLAYGVPSRFSGSGSGTDFTLTISSLQPEDAATYYCAGGYGGGRYAFGQGTKVEIKR
notes: also called MS1032LO23-SG1
In the case of B7, the “ratio of KD at pH 5.8/pH 7.4” value with Human latent myostatin [1] was determined as 62; in assay [2], 26; in the assay with Mouse latent myostatin [3] it was 24. The Kd in the assay with Human latent myostatin [4] is 16.1 nM; in assay [5], 7.71 nM; with Mouse latent myostatin [6], 6.4 nM; in the assay with Human latent myostatin [7], 0.26 nM; in assay [8] it was 0.299 nM; with Mouse latent myostatin [9] it was 0.266 nM.

B8: MS_M103205H1057-SG1/M103202L889-SK1 (antibody, human IgG1, kappa, V domains shown)
VH: QVTLKESGPVLVKPTETLTLTCTVSGIDLSHTDISWVRQAPGKGLEWVGIISYAGSKYKASWAKGRLTISKDTSKNQVVLTMTNMDPVDTATYYCARGVPAYSHGGDLWGQGTLVTVSS
VL: DIVMTQSPATLSLSPGERATLSCTSSQSVYHANWLSWFQQKPGQPPKLLIYWASTLAYGVPSRFSGSGSGTDFTLTISSLQPEDAATYYCAGGYGGGRYAFGQGTKVEIKR
notes: also called MS1032LO12-SG1
B8: the “ratio of KD at pH 5.8/pH 7.4” value with Human latent myostatin [1] amounted to 209; in assay [2], 73; with Mouse latent myostatin [3], 60. Besides, the Kd in the assay with Human latent myostatin [4] amounted to 84.9 nM; in [5] it was 35.8 nM; with Mouse latent myostatin [6] it was 24.8 nM; with Human latent myostatin [7] it was 0.407 nM; in assay [8], 0.492 nM; in the assay with Mouse latent myostatin [9] it was 0.413 nM.
